The values that follow are results of earlier work, collected in US20080095848A1, “Pharmaceutical Composition For Topical Use In Form Of Xerogels Or Films And Methods For Production” (Ludwig-maximilian-University, priority 2004, published 2008).

For the data set the following is noted: aqueous formulation, within two weeks.

B1: EGF: growth factor; wound healing factor, protein unstable in aqueous formulation (protein, UniProt P01133 23-1207, looked up)
Pro-epidermal growth factor: PQHWSCPEGTLAGNGNSTCVGPAPFLIFSHGNSIFRIDTEGTNYEQLVVDAGVSVIMDFHYNEKRIYWVDLERQLLQRVFLNGSRQERVCNIEKNVSGMAINWINEEVIWSNQQEGIITVTDMKGNNSHILLSALKYPANVAVDPVERFIFWSSEVAGSLYRADLDGVGVKALLETSEKITAVSLDVLDKRLFWIQYNREGSNSLICSCDYDGGSVHISKHPTQHNLFAMSLFGDRIFYSTWKMKTIWIANKHTGKDMVRINLHSSFVPLGELKVVHPLAQPKAEDDTWEPEQKLCKLRKGNCSSTVCGQDLQSHLCMCAEGYALSRDRKYCEDVNECAFWNHGCTLGCKNTPGSYYCTCPVGFVLLPDGKRCHQLVSCPRNVSECSHDCVLTSEGPLCFCPEGSVLERDGKTCSGCSSPDNGGCSQLCVPLSPVSWECDCFPGYDLQLDEKSCAASGPQPFLLFANSQDIRHMHFDGTDYGTLLSQQMGMVYALDHDPVENKIYFAHTALKWIERANMDGSQRERLIEEGVDVPEGLAVDWIGRRFYWTDRGKSLIGRSDLNGKRSKIITKENISQPRGIAVHPMAKRLFWTDTGINPRIESSSLQGLGRLVIASSDLIWPSGITIDFLTDKLYWCDAKQSVIEMANLDGSKRRRLTQNDVGHPFAVAVFEDYVWFSDWAMPSVMRVNKRTGKDRVRLQGSMLKPSSLVVVHPLAKPGADPCLYQNGGCEHICKKRLGTAWCSCREGFMKASDGKTCLALDGHQLLAGGEVDLKNQVTPLDILSKTRVSEDNITESQHMLVAEIMVSDQDDCAPVGCSMYARCISEGEDATCQCLKGFAGDGKLCSDIDECEMGVPVCPPASSKCINTEGGYVCRCSEGYQGDGIHCLDIDECQLGEHSCGENASCTNTEGGYTCMCAGRLSEPGLICPDSTPPPHLREDDHHYSVRNSDSECPLSHDGYCLHDGVCMYIEALDKYACNCVVGYIGERCQYRDLKWWELRHAGHGQQQKVIVVAVCVVVLVMLLLLSLWGAHYYRTQKLLSKNPKNPYEESSRDVRSRRPADTEDGMSSCPQPWFVVIKEHQDLKNGGQPVAGEDGQAADGSMQPTSWRQEPQLCGMGTEQGCWIPVSSDKGSCPQVMERSFHMPSYGTQTLEGGVEKPHSLLSANPLWQQRALDPPHQMELTQ
modifications: Pro-epidermal growth factor
B1: the loss of activity is reported as 40%.
